In patent US12459997B2, “Compounds and methods targeting interleukin-19” (Eli Lilly and Company, priority 2018, dated 2025):

How the values were obtained:
[1] = system: Ps0 patients; assay: Ps0 study in anti-TNFα treatment groups: serum IL-19 and PASI; type: in vivo, human; conditions: for IL-19 serum levels (geometric mean) / % of patients with serum IL-19 concentration ≤ 21 pg/mL / % patients with serum IL-19 concentration ≤ 21 pg/mL achieving at least PASI 75 / % patients with serum IL-19 concentration ≤ 21 pg/mL not achieving at least PASI 75: 50 mg biweekly subcutaneous
Text: (§1) According to an exemplified embodiment, a sandwich ELISA assay for the sensitive detection of IL-19 is provided herein. According to an exemplified embodiment, a first IL-19 antibody (selected from Table 1, 2 or 3) is utilized as an IL-19 capture antibody and a second IL-19 antibody (selected from Table 1, 2 or 3) is utilized as an IL-19 reporter antibody. […] According to some embodiments, one milligram of the first IL-19 antibody (the capture antibody) is biotinylated using Pierce biotinylation kit (Cat #) and one milligram of the second IL-19 antibody (the reporter antibody) is labeled with ruthenium using MesoScale Discovery (MSD) kit for electrochemiluminescent (ECL) detection. According to such embodiment, labeled antibodies are evaluated using MALDI-TOF to ensure suitable labeling, and then diluted in 50% glycerol and stored at −20° C. prior to use.
(§2) Streptavidin-coated 96-well MSD plates are washed three times with TBST (Tris buffered saline containing 10 mmol/L Tris pH 7.40, 150 mmol/L NaCl with 1 mL Tween 20/L) and then blocked with TBS-T plus 1% BSA for 1 hour at room temperature. Plates are again washed and wells are then incubated with biotinylated IL-19 capture antibody (1 mg/L) for 1 hour. Thereafter, plates are again washed prior to patient sample testing.
(§3) During patient sample testing, a standard curve is generated using 50 μL of recombinant human IL-19 control standard (serially diluted IL-19 recombinant protein ranging from 100-0.0001 ng/L, and including a zero blank, in assay buffer of 50 mmol/L HEPES, pH 7.40, 150 mmol/L NaCl, 10 mL/L Triton X-100, 5 mmol/L EDTA, and 5 mmol/L EGTA). […] Patient samples (which, according to the present invention, may include blood, serum or plasma) are diluted 1:4 in assay buffer and added to respective wells. The plate is incubated overnight at 4° C. Following incubation, wells are aspirated and washed 3 times with TBST. Thereafter, 50 μL of ruthenium-labeled IL-19 detection antibody (0.5 mg/L) is added to the wells for a 1-hour incubation at room temperature. Following incubation, wells are aspirated and washed 3 times with TBST. Thereafter, 150 μl of 2×MSD read buffer is added. Ruthenium electrochemiluminescence in the wells is detected using a MSD Sector 6000 plate reader. Data is analyzed and IL-19 MSD immunoassay calibration curve fitting is performed using MesoScale Discovery software. SAS® software version 9.4 (PROC MIXED) is used for assessing treatment effects on IL-19 levels using a mixed effects model with an unstructured covariance matrix and log10 transformed IL-19 concentrations (SAS. Version 9.4 for UNIX; SAS Institute Inc.: Cary, N.C., 2016). Statistical analysis is generated with the ggplot and pROC packages using R version 3.3.3 statistical computing environment (www.R-project.org, Vienna, Austria, 2017).
A study of IL-19 levels, in serum of 35 Ps0 patients that were complete responders when treated with the FDA approved TNFα antagonist, entanercept, is performed. Treatment groups of 50 mg of etanercept (n=35) administered biweekly or placebo are compared. Administration of both treatment groups is subcutaneous. […] IL-19 levels are assessed for prognostic value with PASI improvement at weeks 4 and 12. Serum IL-19 concentration levels are presented in Table 11; prognostic values at week 4 showing correlations of IL-19 serum levels and PASI in psoriasis patients (21 ng/L indicates the upper limit of the normal range of IL-19 in healthy subjects) is presented in Table 12; prognostic values at week 12 showing correlations of IL-19 serum levels and PASI in psoriasis patients (21 ng/L indicates the upper limit of the normal range of IL-19 in healthy subjects) is presented in Table 13.

[2] = molecular target: T1, human IL-19 / human IL-20R beta Fc-fusion protein (Homo sapiens, UniProt Q9UHD0); assay: BLI in vitro neutralization: IL-19 captured by antibody, then incubated with IL-20R beta Fc; conditions: block of IL-19 binding to soluble receptor
T1 sequence (Q9UHD0 25-177): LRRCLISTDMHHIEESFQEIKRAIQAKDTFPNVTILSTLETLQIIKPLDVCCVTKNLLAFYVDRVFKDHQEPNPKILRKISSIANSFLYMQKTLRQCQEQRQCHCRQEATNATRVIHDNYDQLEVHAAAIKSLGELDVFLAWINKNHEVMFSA
Text: Alternatively, a biophysical assay such as bio-layer interferometry (BLI) may be used for assessing neutralization of IL-19 by antibodies of the present invention. Binding between a ligand immobilized on the biosensor tip surface and an analyte in solution produces an increase in optical thickness at the biosensor tip, which results in a wavelength shift (expressed in nm). According to such assay, the IL-19 receptor (i.e., […]) is expressed in a membrane-free manner (such as with an Fc-fusion e.g. IL20Rbeta Fc chimera protein from R&D Systems catalog 1788-IR-050). […] The immobilized antibodies are then incubated with recombinant human IL-19 protein diluted to 100 nM using HBS-EP+ running buffer (GE Healthcare, 10 mM Hepes pH7.4+150 mM NaCl+3 mM EDTA+0.05% surfactant P20) for 240-300 secs. The human IL-19, after binding to the anti-IL-19 antibody, is assessed by incubation with human IL-20R beta Fc-fusion protein for 240-300 secs. The ability of the antibody to block or neutralize binding of the IL-19 ligand to the soluble receptor is observed as a minimal (<0.025 nm) increase in the wavelength during this step of the assay.

[3] = system: Ps0 patients; assay: Ps0 study in anti-IL-23 treatment groups: serum IL-19 and PASI; type: in vivo, human
Text: as §1, §2, §3
A study of IL-19 levels, in serum of Ps0 patients treated with a therapeutic antibody targeting IL-23, mirikizumab, is performed. […] Administration of each treatment group, as a single subcutaneous dose, occurs at day 0. […] IL-19 levels are also assessed for prognostic value with PASI improvement between visits 2 and 12. Serum IL-19 concentration levels are presented in Table 14; a comparative of serum levels at week 8 is presented in Table 15; and prognostic values at week 8 showing correlations of IL-19 serum levels and PASI in psoriasis patients (21 ng/L, indicates the upper limit of the normal range of IL-19 in healthy subjects) are presented in Table 16.

etanercept
IL-19 serum levels (geometric mean) ([1]; Week 0 (baseline)): 98.2 pg/mL | IL-19 serum levels (geometric mean) ([1]; Week 1): 42.3 pg/mL | % of patients with serum IL-19 concentration ≤ 21 pg/mL ([1]; week 4): 37.9% (44/116) | % patients with serum IL-19 concentration ≤ 21 pg/mL achieving at least PASI 75 ([1]; week 4): 22.7% (10/44) | % patients with serum IL-19 concentration ≤ 21 pg/mL not achieving at least PASI 75 ([1]; week 4): 77.3% (34/44) | IL-19 serum levels (geometric mean) ([1]; week 4): 24.3 pg/mL | % of patients with serum IL-19 concentration ≤ 21 pg/mL ([1]; week 12): 42.9% (69/161) | % patients with serum IL-19 concentration ≤ 21 pg/mL achieving at least PASI 75 ([1]; week 12): 49.3% (34/69) | % patients with serum IL-19 concentration ≤ 21 pg/mL not achieving at least PASI 75 ([1]; week 12): 50.7% (35/69) | IL-19 serum levels (geometric mean) ([1]; week 12): 14.2 pg/mL | median reduction in serum IL-19 ([1]; after 1 week): greater than 40 pg/mL | median reduction in serum IL-19 ([1]; at week 4): > 70 pg/mL

B1: M_2: murine-derived IL-19 antibody; LC SEQ ID NO: 10, HC SEQ ID NO: 14 (antibody)
heavy: LVQLQQSDAELVKPGASLKISCKVSGYTFTDHALHWMKQRPEQGLEWIGYIYPRDGSTKYNEKFKGKATLTADRSSSTAYMELNSLTSEDSAVYFCARGWDFAMDYWGQGTSVTVSSAKTTPPSVYPLAPGSAAQTNSMVTLGCLVKGYFPEPVTVTWNSGSLSSGVHTFPAVLQSDLYTLSSSVTVPSSTWPSETVTCNVAHPASSTKVDKKIVPRDCGCKPCICTVPEVSSVFIFPPKPKDVLTITLTPKVTCVVVDISKDDPEVQFSWFVDDVEVHTAQTQPREEQFNSTFRSVSELPIMHQDWLNGKEFKCRVNSAAFPAPIEKTISKTKGRPKAPQVYTIPPPKEQMAKDKVSLTCMITDFFPEDITVEWQWNGQPAENYKNTQPIMDTDGSYFVYSKLNVQKSNWEAGNTFTCSVLHEGLHNHHTEKSLSHSPGK
light: DIVLTQSPESLAVSLGQRATISCRASESVDNYGISFIHWYQQKPGQPPKLLIYRASNLKSGIPARFSGRGSRTDFTLTINPVETDDVATYYCQQINKDPLTFGAGTKLELKRADAAPTVSIFPPSSEQLTSGGASVVCFLNNFYPKDINVKWKIDGSERQNGVLNSWTDQDSKDSTYSMSSTLTLTKDEYERHNSYTCEATHKTSTSPIVKSFNRNEC
Neutralization [2]: No

B2: mirikizumab (antibody, chains of the INN, looked up, V domains shown)
VH: QVQLVQSGAEVKKPGSSVKVSCKASGYKFTRYVMHWVRQAPGQGLEWMGYINPYNDGTNYNEKFKGRVTITADKSTSTAYMELSSLRSEDTAVYYCARNWDTGLWGQGTTVTVSS
VL: DIQMTQSPSSLSASVGDRVTITCKASDHILKFLTWYQQKPGKAPKLLIYGATSLETGVPSRFSGSGSGTDFTLTISSLQPEDFATYYCQMYWSTPFTFGGGTKVEIK
notes: therapeutic antibody targeting IL-23
IL-19 (geometric mean) serum levels ([3]; 5 mg single subcutaneous dose, Day 1 (baseline)): 16.2 pg/mL | IL-19 (geometric mean) serum levels ([3]; 5 mg single subcutaneous dose, Day 15): 13.9 pg/mL | IL-19 (geometric mean) serum levels ([3]; 5 mg single subcutaneous dose, Day 29): 10.4 pg/mL | IL-19 (geometric mean) serum levels ([3]; 5 mg single subcutaneous dose, Day 57): 13.2 pg/mL | IL-19 (geometric mean) serum levels ([3]; 5 mg single subcutaneous dose, Day 71): 14.5 pg/mL | IL-19 (geometric mean) serum levels ([3]; 20 mg single subcutaneous dose, Day 1 (baseline)): 37.2 pg/mL | IL-19 (geometric mean) serum levels ([3]; 20 mg single subcutaneous dose, Day 15): 27.2 pg/mL | IL-19 (geometric mean) serum levels ([3]; 20 mg single subcutaneous dose, Day 29): 25.4 pg/mL | IL-19 (geometric mean) serum levels ([3]; 20 mg single subcutaneous dose, Day 57): 33.5 pg/mL | IL-19 (geometric mean) serum levels ([3]; 20 mg single subcutaneous dose, Day 71): 28.4 pg/mL | IL-19 (geometric mean) serum levels ([3]; 60 mg single subcutaneous dose, Day 1 (baseline)): 49.8 pg/mL | IL-19 (geometric mean) serum levels ([3]; 60 mg single subcutaneous dose, Day 15): 9.0 pg/mL | IL-19 (geometric mean) serum levels ([3]; 60 mg single subcutaneous dose, Day 29): 10.8 pg/mL | IL-19 (geometric mean) serum levels ([3]; 60 mg single subcutaneous dose, Day 57): 11.9 pg/mL | IL-19 (geometric mean) serum levels ([3]; 60 mg single subcutaneous dose, Day 71): 10.9 pg/mL | IL-19 (geometric mean) serum levels ([3]; 120 mg single subcutaneous dose, Day 1 (baseline)): 52.4 pg/mL | IL-19 (geometric mean) serum levels ([3]; 120 mg single subcutaneous dose, Day 15): 26.6 pg/mL | IL-19 (geometric mean) serum levels ([3]; 120 mg single subcutaneous dose, Day 29): 25.2 pg/mL | IL-19 (geometric mean) serum levels ([3]; 120 mg single subcutaneous dose, Day 57): 22.2 pg/mL | IL-19 (geometric mean) serum levels ([3]; 120 mg single subcutaneous dose, Day 71): 18.2 pg/mL | IL-19 (geometric mean) serum levels ([3]; 200 mg single subcutaneous dose, Day 1 (baseline)): 69.6 pg/mL | IL-19 (geometric mean) serum levels ([3]; 200 mg single subcutaneous dose, Day 15): 36.0 pg/mL | IL-19 (geometric mean) serum levels ([3]; 200 mg single subcutaneous dose, Day 29): 23.3 pg/mL | IL-19 (geometric mean) serum levels ([3]; 200 mg single subcutaneous dose, Day 57): 21.9 pg/mL | IL-19 (geometric mean) serum levels ([3]; 200 mg single subcutaneous dose, Day 71): 22.5 pg/mL | IL-19 (geometric mean) serum levels ([3]; 300 mg, Week 0 (Baseline)): 106.5 pg/mL | IL-19 (geometric mean) serum levels ([3]; 300 mg, Week 8 (End of induction)): 18.2 pg/mL | % of patients with serum IL-19 concentration ≤ 21 pg/mL ([3]; 300 mg, week 8): 58.3% (28/48) | % patients with serum IL-19 concentration ≤ 21 pg/mL achieving at least PASI 75 ([3]; 300 mg, week 8): 71.4% (20/28) | % patients with serum IL-19 concentration ≤ 21 pg/mL not achieving at least PASI 75 ([3]; 300 mg, week 8): 28.6% (8/28) | IL-19 (geometric mean) serum levels ([3]; 350 mg single subcutaneous dose, Day 1 (baseline)): 58.4 pg/mL | IL-19 (geometric mean) serum levels ([3]; 350 mg single subcutaneous dose, Day 15): 35.2 pg/mL | IL-19 (geometric mean) serum levels ([3]; 350 mg single subcutaneous dose, Day 29): 22.4 pg/mL | IL-19 (geometric mean) serum levels ([3]; 350 mg single subcutaneous dose, Day 57): 23.7. pg/ml | IL-19 (geometric mean) serum levels ([3]; 350 mg single subcutaneous dose, Day 71): 18.0 pg/mL | IL-19 (geometric mean) serum levels ([3]; 600 mg single subcutaneous dose, Day 1 (baseline)): 57.3 pg/mL | IL-19 (geometric mean) serum levels ([3]; 600 mg single subcutaneous dose, Day 15): 30.1 pg/mL | IL-19 (geometric mean) serum levels ([3]; 600 mg single subcutaneous dose, Day 29): 21.8 pg/mL | IL-19 (geometric mean) serum levels ([3]; 600 mg single subcutaneous dose, Day 57): 14.4. pg/ml | IL-19 (geometric mean) serum levels ([3]; 600 mg single subcutaneous dose, Day 71): 15.8 pg/mL
